Experimental data reported in patent US20250171543A1 (TAIZHOU ENZE MEDICAL CENTER GROUP, published 2025).

How the values were obtained:
[1] = target: T1, HLA-G5 (human, UniProt P17693-5 25-319); experiment: intracellular flow cytometry, FITC-labeled antibody on permeabilised K562-HLA-G5 cells
T1 construct: also called HLA-G isoform standard protein HLA-G5; K562-HLA-G5
Experimental: (§1) The cell cultures expressing the K562 (blank control), K562-HLA-G1, K562-HLA-G2, K562-HLA-G3, K562-HLA-G4, K562-HLA-G5, K562-HLA-G6 and K562-HLA-G7 in the logarithmic growth phase were used. The detection was conducted by intracellular flow cytometry.
(§2) Detection of intracellular molecule expression by flow cytometry: The cell cultures of K562, K562-HLA-G1, K562-HLA-G2, K562-HLA-G3, K562-HLA-G4, K562-HLA-G5, K562-HLA-G6, K562-HLA-G7 were collected in test tubes, centrifuged and washed twice with 2% BSA/PBS (250 g), then 250 μL of cell membrane-breaking agent (BD Cytofix/Cytoperm™) was added, fully mixed, and placed in the refrigerator at 4° C. for 20 minutes. Then 1 ml of BD Perm/Wash™ was added to centrifuge and wash twice (250 g).

[2] = target: T2, HLA-G2 (human, UniProt P17693-2 25-246); experiment: intracellular flow cytometry, FITC-labeled antibody on permeabilised K562-HLA-G2 cells
T2 construct: also called HLA-G isoform standard protein HLA-G2; K562-HLA-G2
Experimental: as §1, §2

[3] = target: T3, HLA-G3 (human, UniProt P17693-3 25-154); experiment: intracellular flow cytometry, FITC-labeled antibody on permeabilised K562-HLA-G3 cells
T3 construct: also called HLA-G isoform standard protein HLA-G3; K562-HLA-G3
Experimental: as §1, §2

[4] = target: T4, HLA-G6 (human, UniProt P17693-6 25-227); experiment: intracellular flow cytometry, FITC-labeled antibody on permeabilised K562-HLA-G6 cells
T4 construct: also called HLA-G isoform standard protein HLA-G6; K562-HLA-G6
Experimental: as §1, §2

[5] = target: T5, immunogen peptide QTDRMNLQTLRGYYNQSEAS (positions 72-91 in the heavy chain α1 domain of the HLA-G molecule) (human); experiment: ELISA on coated peptide, 2-fold dilution series
T5 construct: Synthetic peptide, coated on the ELISA plate at 2 µg/ml; also called antigen
T5 peptide: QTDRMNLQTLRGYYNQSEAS
Experimental: (§3) The antigen (SEQ No.19 [sequence]) was diluted with coating solution to a final concentration of 2 μg/ml, 10 μL/well, overnight at 4° C.; then washed twice with the washing solution; blocked with the blocking solution at 200 μL/well, incubated at 37° C. for 2 hours; then washed once with the washing solution. The purified antibody was diluted gradiently with PBS by 2-fold starting from 200-fold, using PBS as the blank control, both 100 μL/well, incubated at 37° C. for 1 hour; and then washed 3 times with the washing solution. The secondary antibody diluted by 20,000-fold with PBS was added at 100 L/well, and incubated in a 37° C. incubator for 1 hour; taken out and washed 3 times with the washing solution. Then color development was performed with the developing solution at 100 μL/well for 5-15 minutes. Then 50 μL of stop solution was added, and the absorbance was measured at dual wavelengths (450, 630), and a plot was drawn for analysis.

[6] = target: T5, immunogen peptide QTDRMNLQTLRGYYNQSEAS …; experiment: ELISA on coated peptide, logistic fit, affinity constant = 150000 x dilution factor / antibody concentration
Experimental: as §3

[7] = target: T6, HLA-G7 (human, UniProt P17693-7 25-116); experiment: immunoblot of standard proteins, antibody 1.0 µg/ml
T6 construct: also called HLA-G isoform standard protein HLA-G7; K562-HLA-G7
Experimental: After SDS-PAGE electrophoresis and transferred to PVDF membrane, the HLA-G isoform standard proteins HLA-G1, HLA-G2, HLA-G3, HLA-G4, HLA-G5, HLA-G6, HLA-G7 and HLA-G molecular standard proteins lacking al domain were blocked with 5% skimmed milk powder at room temperature for 4 hours, and washed with 0.2% TBS (Tween-20 PBS).

[8] = target: T7, HLA-G4 (human, UniProt P17693-4 25-246); experiment: intracellular flow cytometry, FITC-labeled antibody on permeabilised K562-HLA-G4 cells
T7 construct: also called HLA-G isoform standard protein HLA-G4; K562-HLA-G4
Experimental: as §1, §2

binding result [1]: binds
binding result [2]: binds
binding result [3]: binds
binding result [4]: binds
binding result [7]: binds
binding result [8]: binds
B1: monoclonal antibody YWHG-1 against HLA-G molecule (antibody, V domains shown)
VH: QLQESGTVLVRPGASVKLSCKASGYIFTSYWINWVKQRPGQGLEWIGNIYPSDSYTNFNQKFEDKATLTVDTSSSTAYMQFSSPTSEDSAVYYCTRFGYPFDYWGQGTTLTVSS
VL: DIVITQDELSLTVSLGDQASISCRTSQSFVHSNGNIYLEWFLQKPGQSPKLLIYKVSSRFSGVPDRFSGSGSGTDFTLKISRVEAEDLGIYYCFQGSHVPPTFGGGTKLEIK
notes: FITC-labeled in the flow cytometry assay; also called hybridoma CCTCC NO: 202120
antibody dilution factor corresponding to 1/2 OD value [5]: 25600 fold dilution (of 1.9 mg/mL antibody)
Ka [6]: 2.02e+09 M⁻¹
